± gives the standard error. For part of these data: Variants at the floor of the assay were thinned out.

B1: glmS ribozyme (parent)
chain: AUAAAAGCGCCAGAACUACAGAAAUGUAGUUGACGAGGAGGAGGUUUAUCGAAUUUUCGGCGGAUGCCUCCAAA

What all share (conditions): with glucosamine-6-phosphate
The variants in data set [1] derive from B1. Kind of data set: kcat; higher = faster cleavage; RNA array. The procedure, abridged: (§1)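 Glucosamine-6-phosphate in HEPES/KCl/Mg(OAc)2 buffer, at 40 μM to 10 mM, was flowed over barcoded ribozyme variants transcribed in situ by E. coli RNA polymerase on sequenced MiSeq chips. Tracking was through a hybridised Cy3 probe at 37 °C. kobs, kcat and KM came from exponential decay fits and weighted Michaelis–Menten fits of normalised per-tile medians.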

In data set [2] the parent is B1. Kind of data set: KM; higher = weaker cofactor use; RNA array. In short, it runs like this: as §1
In data set [3] the parent is B1. Kind of data set: self-cleavage kobs at 40 uM GlcN6P; higher = faster cleavage; RNA array. The procedure, abridged: as §1
In data set [4] the parent is B1. Kind of data set: self-cleavage kobs at 160 uM GlcN6P; higher = faster cleavage; RNA array. In short, it runs like this: as §1
Variants of B1 are the subject of data set [5]. Kind of data set: self-cleavage kobs at 640 uM GlcN6P; higher = faster cleavage; RNA array. The procedure, abridged:
as §1

The variants in data set [6] derive from B1. Kind of data set: self-cleavage kobs at 2500 uM GlcN6P; higher = faster cleavage; RNA array. The procedure, abridged:
as §1

Data set [7] covers variants of B1. Kind of data set: self-cleavage kobs at 10000 uM GlcN6P; higher = faster cleavage; RNA array. The procedure, abridged: as §1

With AUAAAAGCGCCAGAACUACAGAAAUGUAGGUGACGAGGAGGAGGUUUAUCGAACUUUCGGCGGAUGCCUCCAAA [U30G U54C], in the data set with glucosamine-6-phosphate [1], the kcat was determined as 0.00885 ± 0.00078 s⁻¹. Moreover, the KM with glucosamine-6-phosphate [2] came out at 2170 ± 270 µM. The “self-cleavage kobs at 40 uM GlcN6P” value in the data set with glucosamine-6-phosphate [3] is 0.000148 ± 2.5e-05 s⁻¹. The “self-cleavage kobs at 160 uM GlcN6P” value in the data set with glucosamine-6-phosphate [4] stood at 0.000617 ± 0.00011 s⁻¹. Further, the “self-cleavage kobs at 640 uM GlcN6P” value with glucosamine-6-phosphate [5] is 0.00235 ± 0.00041 s⁻¹. The “self-cleavage kobs at 2500 uM GlcN6P” value with glucosamine-6-phosphate [6] was determined as 0.00471 ± 0.0008 s⁻¹. Further, in the data set with glucosamine-6-phosphate [7], the “self-cleavage kobs at 10000 uM GlcN6P” value was found to be 0.00714 ± 0.001 s⁻¹.

Consider AUAAAAGCGCCAGAACUACAGAAAUGUAGUUGACGAGGAGGAGGUUAAUCGAAUCUUCGGCGGAUGCCUCCAAA [U47A U55C], for which the kcat in the data set with glucosamine-6-phosphate [1] worked out at 0.0198 ± 0.0084 s⁻¹. For the same variant, the “self-cleavage kobs at 40 uM GlcN6P” value with glucosamine-6-phosphate [3] came to 0.000537 ± 8.5e-05 s⁻¹. The “self-cleavage kobs at 160 uM GlcN6P” value in the data set with glucosamine-6-phosphate [4] came to 0.00116 ± 0.00033 s⁻¹. For the same variant, the “self-cleavage kobs at 640 uM GlcN6P” value with glucosamine-6-phosphate [5] worked out at 0.00441 ± 0.0013 s⁻¹. In addition, the “self-cleavage kobs at 2500 uM GlcN6P” value with glucosamine-6-phosphate [6] was found to be 0.0089 ± 0.0023 s⁻¹. Further, the “self-cleavage kobs at 10000 uM GlcN6P” value with glucosamine-6-phosphate [7] is 0.024 ± 0.0055 s⁻¹.

AUAAAAGCGCCAGAACUACAGAAAUGUAGUUGUCGAGGAGGAGGUUUAUCGAAUUUACGGCGGAUGCCUCCAAA [A33U U57A]: the kcat with glucosamine-6-phosphate [1] was below 1e-05 s⁻¹.

Take AUAAAAGCGCCAGAACUACAGAAAUGUAGUUGACGAGGAGGAGGCUUACCGAAUUUUCGGCGGAUUCCUCCAAA [U45C U49C G66U]: the turnover number (kcat) with glucosamine-6-phosphate [1] is below 1e-05 s⁻¹. For the same variant, the “self-cleavage kobs at 2500 uM GlcN6P” value in the data set with glucosamine-6-phosphate [6] was below 1e-05 s⁻¹. The “self-cleavage kobs at 10000 uM GlcN6P” value with glucosamine-6-phosphate [7] is below 1e-05 s⁻¹.

On to AUAAAAGCGCCAGAACUACAGAAAUGUAGUUAACGAGGAGGAGGUUUAUCGAAUUUUCGACGGAUGCCUCCAAA [G32A G60A], for which the catalytic constant (kcat) in the data set with glucosamine-6-phosphate [1] was below 1e-05 s⁻¹. Further, the “self-cleavage kobs at 40 uM GlcN6P” value with glucosamine-6-phosphate [3] is below 1e-05 s⁻¹. Further, the “self-cleavage kobs at 160 uM GlcN6P” value with glucosamine-6-phosphate [4] was below 1e-05 s⁻¹. Moreover, the “self-cleavage kobs at 640 uM GlcN6P” value in the data set with glucosamine-6-phosphate [5] is below 1e-05 s⁻¹.

Turning to AUAAAAGCGCCCGAACUACAGAAAUGUAGUUGACGAGGAGGAGGUUUAUCGAAUAUUCGGCGGAUGCCUCCAAA [A12C U55A], the kcat with glucosamine-6-phosphate [1] came out at 0.0159 ± 0.0051 s⁻¹. The KM with glucosamine-6-phosphate [2] worked out at 888 ± 360 µM. In the data set with glucosamine-6-phosphate [3], the “self-cleavage kobs at 40 uM GlcN6P” value was 0.000742 ± 8.1e-05 s⁻¹. The “self-cleavage kobs at 160 uM GlcN6P” value with glucosamine-6-phosphate [4] was 0.00192 ± 0.00036 s⁻¹. Moreover, the “self-cleavage kobs at 640 uM GlcN6P” value in the data set with glucosamine-6-phosphate [5] was found to be 0.00819 ± 0.0014 s⁻¹. For the same variant, the “self-cleavage kobs at 2500 uM GlcN6P” value with glucosamine-6-phosphate [6] amounted to 0.0112 ± 0.0021 s⁻¹.

Consider AUAAAAGCGCCAGAACUACAGAAAUGUAGUUGACGAGGAGGAGGUUUGUCGAAUUUUCGGCGGAUGCGUCCAAA [A48G C68G], for which the kcat with glucosamine-6-phosphate [1] came to 5.98e-05 ± 7.3e-06 s⁻¹. Further, in the data set with glucosamine-6-phosphate [3], the “self-cleavage kobs at 40 uM GlcN6P” value worked out at 4.65e-05 ± 1.2e-05 s⁻¹. Besides, in the data set with glucosamine-6-phosphate [5], the “self-cleavage kobs at 640 uM GlcN6P” value stood at 7.32e-05 ± 1.6e-05 s⁻¹. Also, the “self-cleavage kobs at 2500 uM GlcN6P” value with glucosamine-6-phosphate [6] worked out at 5.41e-05 ± 1.2e-05 s⁻¹. The “self-cleavage kobs at 10000 uM GlcN6P” value with glucosamine-6-phosphate [7] was 5.84e-05 ± 8.1e-06 s⁻¹.

Turning to AUAAAGGCGCCAGAACUACAGAAAUGUAGUUGACGAGGAGGACGUUUAUCGAAUUUUCGGCGGAUGCGUCCAAA [A6G G43C C68G], in the data set with glucosamine-6-phosphate [1], the catalytic constant (kcat) was 0.000785 ± 0.00019 s⁻¹. For the same variant, the KM with glucosamine-6-phosphate [2] came to 1000 ± 470 µM. Besides, the “self-cleavage kobs at 40 uM GlcN6P” value with glucosamine-6-phosphate [3] came out at 3.71e-05 ± 1.7e-05 s⁻¹. Also, the “self-cleavage kobs at 160 uM GlcN6P” value in the data set with glucosamine-6-phosphate [4] is 9.17e-05 ± 2.6e-05 s⁻¹. Further, the “self-cleavage kobs at 640 uM GlcN6P” value with glucosamine-6-phosphate [5] worked out at 0.000423 ± 8.3e-05 s⁻¹. Further, in the data set with glucosamine-6-phosphate [6], the “self-cleavage kobs at 2500 uM GlcN6P” value worked out at 0.000399 ± 0.00011 s⁻¹. For the same variant, the “self-cleavage kobs at 10000 uM GlcN6P” value with glucosamine-6-phosphate [7] was determined as 0.000819 ± 0.00015 s⁻¹.

Turning to AUAAAAGCGCCAGCACUACAGAAAUGUAGUUGACGAGGAGGAGGUUUAGCGAAUUUUCGGCGGAUGCCUCCAAA [A14C U49G], in the data set with glucosamine-6-phosphate [1], the kcat worked out at 0.000151 ± 5.2e-06 s⁻¹. Besides, the Michaelis-Menten constant (KM) with glucosamine-6-phosphate [2] was determined as 6690 ± 570 µM. Besides, in the data set with glucosamine-6-phosphate [7], the “self-cleavage kobs at 10000 uM GlcN6P” value came out at 9.07e-05 ± 1.3e-05 s⁻¹.

The values are drawn from the supplement of paper PMC7125110.
